Here are results for 2 molecules from publication PMC6081480, “Monitoring the action of redox-directed cancer therapeutics using a human peroxiredoxin-2-based probe” (Nature Communications, 2018).

Data set [1] addresses human Prx2-based FRET probe (Clover-Prx2-mRuby2) (human). The data set can be described thus: non-reducing SDS-PAGE with immunoblot; HeLa cells with or without the probe, treated with H2O2 (also auranofin or piperlongumine); free thiols blocked with 100 mM MMTS; 1% Triton X-100 lysate; SDS-PAGE without beta-mercaptoethanol; blot for Prx2 or GFP; disulfide-linked dimers.
Data set [2] concerns the molecule itself. The data set is described as above.

What is called stoichiometry N is a count of units in the complex or per binding partner. In data set [1], “human Prx2-based FRET probe (Clover-Prx2-mRuby2)” returned a stoichiometry N of 2.

B1: human peroxiredoxin-2 (endogenous) (natural protein, human (endogenous in HeLa), UniProt P32119 1-198, looked up)
chain: MASGNARIGKPAPDFKATAVVDGAFKEVKLSDYKGKYVVLFFYPLDFTFVCPTEIIAFSNRAEDFRKLGCEVLGVSVDSQFTHLAWINTPRKEGGLGPLNIPLLADVTRRLSEDYGVLKTDEGIAYRGLFIIDGKGVLRQITVNDLPVGRSVDEALRLVQAFQYTDEHGEVCPAGWKPGSDTIKPNVDDSKEYFSKHN
notes: peroxiredoxin-2 (Prx2), human, endogenous in HeLa cells; monomer band at 21 kDa; the dimer seen on non-reducing SDS-PAGE is linked by a disulfide between the catalytic and the resolving cysteine of two monomers; also called Prx2; endogenous Prx2; source: endogenous, HeLa lysate
Turning to B1, in data set [2], the “stoichiometry N” value is 2.
